# The DeepSol protein solubility set
# Experiment: soluble on expression in E. coli; label from the status in PepcDB or PDB records
row,Sequence,soluble on expression in E. coli
1,MGSDKIHHHHHHMWQAISRLLSEQLGEGEIELRNELPGGEVHAAWHLRYAGHDFFVKCDERELLPGFTAEADQLELLSRSKTVTVPKVWAVGADRDYSFLVMDYLPPRPLDAHSAFILGQQIARLHQWSDQPQFGLDFDNALSTTPQPNTWQRRWSTFFAEQRIGWQLELAAEKGIAFGNIDAIVEHIQQRLASHQPQPSLLHGDLWSGNCALGPDGPYIFDPACYWGDRECDLAMLPLHTEQPPQIYDGYQSVSPLPADFLERQPVYQLYTLLNRARLFGGQHLVIAQQSLDRLLAA,not soluble
2,MAHHHHHHMSHPKMKLVRRARKSIRERRMKACLKDLSSNLEKVEMRVFRQQKQKRQQQQRKGAGNHITVPPDVLRGVMNPELYHIECRLHQEACMPPPPPYEGYSQRERCDGARRRIGFVEFVTIAEMVRLGAMPGTPARVGI,not soluble
3,MGSDKIHHHHHHMHSMRLSQIQDFIAVAEGGSIRAAARTRDVSAPALTKSIRQLEDELHVPLLTRTTRGVVLSHYGEAFLRRARLIATEARRATEEMTQMLGARTGTVRIGVTGGPAHLLLPAALNRFRRQHPEVQVYIDSGRSAVHLQDLRAGLIDVAVSPIPDEGIDHDFICEPLYNNDSVVVAHQDHPLRHARTLRELVGSEWILTTCRMHGPGAAIMDAFRAQDLPLPRVAVRCDTFNLIQALLQNRRLLCMVARQLMQDRVGASTGLAVLPIEDPLPSHTVCLIYRADSPMPPVVASFAAQLRREAHYLINMPDSPLKRPGAPPEPRDDKPVETADIAV,not soluble
4,MDEGDKKSPISQVHEIGIKRNMTVHFKVLREEGPAHMKNFITACIVGSIVTEGEGNGKKVSKKRAAEKMLVELQKL,soluble
5,MVSVIKPEMKMRYYMDGSVNGHEFTIEGEGTGRPYEGHQEMTLRVTMAKGGPMPFAFDLVSHVFCYGHRPFTKYPEEIPDYFKQAFPEGLSWERSLEFEDGGSASVSAHISLRGNTFYHKSKFTGVNFPADGPIMQNQSVDWEPSTEKITASDGVLKGDVTMYLKLEGGGNHKCQFKTTYKAAKKILKMPGSHYISHRLVRKTEGNITELVEDAVAHSLEHHHHHH,soluble
6,MSLSELVRKLSGTAPNPAFPRGAVDTQMHMYLPGYPALPGGPGLPPGALPGPEDYRRLMQWLGIDRVIITQGNAHQRDNGNTLACVAEMGEAAHAVVIIDATTTEKDMEKLTAAGTVGARIMDLPGGAVNLSELDAVDERAHAADWMVAVQFDGNGLLDHLPRLQKIRSRWVFDHHGKFFKGIRTDGPEMAALLKLIDRGNLWFKFAGVYESSRKSWPYADVAAFSRVIAAHAPERIVWGTNWPHNSVRETAAYPDDARLAELTLGWLPDEAARHRALVENPEALFKLSPVKEGHHHHHH,soluble
7,MNRQIPKVPDAIELEYDLDEPPQKVWRAISIPAFREHWLPKEALAQPEAIKVSPGREVCYRLREDTPPFLESTVTFQIASNDRGGTSLRIIHDLPAIKSGRMTKAAANHNGSPIKLAALEHHHHHH,not soluble
8,MGSDKIHHHHHHMLGKTANGLFWMSRYLERAENTARLIETGQRIALTRLGSAEDEWVSILQSAGSLGGFREAYDTHGQDAAVDWMLRGKDNPSSIMSSIASARQNARLVRAAITGEVWEAINATYMTASDLLARKVSARDLPDVLASIRQHTALMRGMVHGTMLRNDIYDFLRIGTFLERADNTARILDVKYYVLLPSVSAVGSSIDNVQWESILRSVSARGGFRMEYGADGGPQEIAHFLIFDKRMPRSLAFCVSKIKDNLRYLNAGQPTPSPSQELVTHLENTYLSHGIEEVFDYGLHEFIEKMLELLLELAHQIQLDYRFYE,not soluble
9,MIWLVLVLSLFLFSCEKLNEIFLEEDLLQRPPSKRCSDCHAKIYEDWEKSRHAKAWVSEHFKEESENYSKLKCLSCHAPHQVDPLKKPVLRVERRHEGVNCIACHFKEETKAMHGPYKVFSPPHPSREDKNYTKSEICAGCHQKTYREWKIARVKTTCQQCHMKVVDYAWIMDKFPFFLFHSRKALHDHTFPAGKATPKDIKLILTEGALNIINVGIPHNLPTADQGNPKLYLIIEFYYKDGKKKVLRRVLSPQAKTALAYLIPYTVKIPRYEKLEKVRVSIYRRLAWEKKRELILSEELKKPF,not soluble
